Laboratory results published in US20180092966A1 (CSL, published 2018).
Numbering of substitutions follows the chain as printed. Names may count otherwise.

B1: Factor VIII SingleChain T1654C mutant (other)
chain: ATRRYYLGAVELSWDYMQSDLGELPVDARFPPRVPKSFPFNTSVVYKKTLFVEFTDHLFNIAKPRPPWMGLLGPTIQAEVYDTVVITLKNMASHPVSLHAVGVSYWKASEGAEYDDQTSQREKEDDKVFPGGSHTYVWQVLKENGPMASDPLCLTYSYLSHVDLVKDLNSGLIGALLVCREGSLAKEKTQTLHKFILLFAVFDEGKSWHSETKNSLMQDRDAASARAWPKMHTVNGYVNRSLPGLIGCHRKSVYWHVIGMGTTPEVHSIFLEGHTFLVRNHRQASLEISPITFLTAQTLLMDLGQFLLFCHISSHQHDGMEAYVKVDSCPEEPQLRMKNNEEAEDYDDDLTDSEMDVVRFDDDNSPSFIQIRSVAKKHPKTWVHYIAAEEEDWDYAPLVLAPDDRSYKSQYLNNGPQRIGRKYKKVRFMAYTDETFKTREAIQHESGILGPLLYGEVGDTLLIIFKNQASRPYNIYPHGITDVRPLYSRRLPKGVKHLKDFPILPGEIFKYKWTVTVEDGPTKSDPRCLTRYYSSFVNMERDLASGLIGPLLICYKESVDQRGNQIMSDKRNVILFSVFDENRSWYLTENIQRFLPNPAGVQLEDPEFQASNIMHSINGYVFDSLQLSVCLHEVAYWYILSIGAQTDFLSVFFSGYTFKHKMVYEDTLTLFPFSGETVFMSMENPGLWILGCHNSDFRNRGMTALLKVSSCDKNTGDYYEDSYEDISAYLLSKNNAIEPRSFSQNSRHRSTRQKQFNATTIPENTCLQSDQEEIDYDDTISVEMKKEDFDIYDEDENQSPRSFQKKTRHYFIAAVERLWDYGMSSSPHVLRNRAQSGSVPQFKKVVFQEFTDGSFTQPLYRGELNEHLGLLGPYIRAEVEDNIMVTFRNQASRPYSFYSSLISYEEDQRQGAEPRKNFVKPNETKTYFWKVQHHMAPTKDEFDCKAWAYFSDVDLEKDVHSGLIGPLLVCHTNTLNPAHGRQVTVQEFALFFTIFDETKSWYFTENMERNCRAPCNIQMEDPTFKENYRFHAINGYIMDTLPGLVMAQDQRIRWYLLSMGSNENIHSIHFSGHVFTVRKKEEYKMALYNLYPGVFETVEMLPSKAGIWRVECLIGEHLHAGMSTLFLVYSNKCQTPLGMASGHIRDFQITASGQYGQWAPKLARLHYSGSINAWSTKEPFSWIKVDLLAPMIIHGIKTQGARQKFSSLYISQFIIMYSLDGKKWQTYRGNSTGTLMVFFGNVDSSGIKHNIFNPPIIARYIRLHPTHYSIRSTLRMELMGCDLNSCSMPLGMESKAISDAQITASSYFTNMFATWSPSKARLHLQGRSNAWRPQVNNPKEWLQVDFQKTMKVTGVTTQGVKSLLTSMYVKEFLISSSQDGHQWTLFFQNGKVKVFQGNQDSFTPVVNSLDPPLLTRYLRIHPQSWVHQIALRMEVLGCEAQDLY
notes: Single-chain FVIII with partial B-domain deletion (per WO 2004/067566); also called FVIII-SC T1654C; Cys residue at FVIII aa position 1654
B2: Factor VIII SingleChain Q1686C mutant (other)
chain: B1 chain with C766T, Q798C
notes: Single-chain FVIII with partial B-domain deletion; also called FVIII-SC Q1686C; Cys residue at FVIII aa position 1686
B3: Factor VIII SingleChain Q1656C mutant (other)
chain: B1 chain with C766T, Q768C
notes: Single-chain FVIII with partial B-domain deletion; also called FVIII-SC Q1656C; Cys residue at FVIII aa position 1656
B4: Factor VIII SingleChain E1684C mutant (other)
chain: B1 chain with C766T, E796C
notes: Single-chain FVIII with partial B-domain deletion; also called FVIII-SC E1684C; Cys residue at FVIII aa position 1684
B5: Factor VIII SingleChain S1687C mutant (other)
chain: B1 chain with C766T, S799C
notes: Single-chain FVIII with partial B-domain deletion; also called FVIII-SC S1687C; Cys residue at FVIII aa position 1687
B6: Factor VIII SingleChain F1677C mutant (other)
chain: B1 chain with C766T, F789C
notes: Single-chain FVIII with partial B-domain deletion; also called FVIII-SC F1677C; Cys residue at FVIII aa position 1677
B7: Factor VIII SingleChain D1681C mutant (other)
chain: B1 chain with C766T, D793C
notes: Single-chain FVIII with partial B-domain deletion; also called FVIII-SC D1681C; Cys residue at FVIII aa position 1681
B8: Factor VIII SingleChain E1682C mutant (other)
chain: B1 chain with C766T, E794C
notes: Single-chain FVIII with partial B-domain deletion; also called FVIII-SC E1682C; Cys residue at FVIII aa position 1682
B9: Factor VIII SingleChain I1679C mutant (other)
chain: B1 chain with C766T, I791C
notes: Single-chain FVIII with partial B-domain deletion; also called FVIII-SC I1679C mutant; Cys residue at FVIII aa position 1679
B10: Factor VIII SingleChain D1683C mutant (other)
chain: B1 chain with C766T, D795C
notes: Single-chain FVIII with partial B-domain deletion; also called FVIII-SC D1683C; Cys residue at FVIII aa position 1683

Target: T1, VWF-FP N1134C mutant (albumin-fused von Willebrand Factor) (human)
T1 construct: Stably expressed in CHO cells with furin co-transfected; also called VWF-FP mutant N1134C; Cys residue at VWF aa position 1134; not shown: linker between VWF and albumin, made in analogy to WO 2009/156137
T1 sequence (chain, as listed by the source N1134C N1134C): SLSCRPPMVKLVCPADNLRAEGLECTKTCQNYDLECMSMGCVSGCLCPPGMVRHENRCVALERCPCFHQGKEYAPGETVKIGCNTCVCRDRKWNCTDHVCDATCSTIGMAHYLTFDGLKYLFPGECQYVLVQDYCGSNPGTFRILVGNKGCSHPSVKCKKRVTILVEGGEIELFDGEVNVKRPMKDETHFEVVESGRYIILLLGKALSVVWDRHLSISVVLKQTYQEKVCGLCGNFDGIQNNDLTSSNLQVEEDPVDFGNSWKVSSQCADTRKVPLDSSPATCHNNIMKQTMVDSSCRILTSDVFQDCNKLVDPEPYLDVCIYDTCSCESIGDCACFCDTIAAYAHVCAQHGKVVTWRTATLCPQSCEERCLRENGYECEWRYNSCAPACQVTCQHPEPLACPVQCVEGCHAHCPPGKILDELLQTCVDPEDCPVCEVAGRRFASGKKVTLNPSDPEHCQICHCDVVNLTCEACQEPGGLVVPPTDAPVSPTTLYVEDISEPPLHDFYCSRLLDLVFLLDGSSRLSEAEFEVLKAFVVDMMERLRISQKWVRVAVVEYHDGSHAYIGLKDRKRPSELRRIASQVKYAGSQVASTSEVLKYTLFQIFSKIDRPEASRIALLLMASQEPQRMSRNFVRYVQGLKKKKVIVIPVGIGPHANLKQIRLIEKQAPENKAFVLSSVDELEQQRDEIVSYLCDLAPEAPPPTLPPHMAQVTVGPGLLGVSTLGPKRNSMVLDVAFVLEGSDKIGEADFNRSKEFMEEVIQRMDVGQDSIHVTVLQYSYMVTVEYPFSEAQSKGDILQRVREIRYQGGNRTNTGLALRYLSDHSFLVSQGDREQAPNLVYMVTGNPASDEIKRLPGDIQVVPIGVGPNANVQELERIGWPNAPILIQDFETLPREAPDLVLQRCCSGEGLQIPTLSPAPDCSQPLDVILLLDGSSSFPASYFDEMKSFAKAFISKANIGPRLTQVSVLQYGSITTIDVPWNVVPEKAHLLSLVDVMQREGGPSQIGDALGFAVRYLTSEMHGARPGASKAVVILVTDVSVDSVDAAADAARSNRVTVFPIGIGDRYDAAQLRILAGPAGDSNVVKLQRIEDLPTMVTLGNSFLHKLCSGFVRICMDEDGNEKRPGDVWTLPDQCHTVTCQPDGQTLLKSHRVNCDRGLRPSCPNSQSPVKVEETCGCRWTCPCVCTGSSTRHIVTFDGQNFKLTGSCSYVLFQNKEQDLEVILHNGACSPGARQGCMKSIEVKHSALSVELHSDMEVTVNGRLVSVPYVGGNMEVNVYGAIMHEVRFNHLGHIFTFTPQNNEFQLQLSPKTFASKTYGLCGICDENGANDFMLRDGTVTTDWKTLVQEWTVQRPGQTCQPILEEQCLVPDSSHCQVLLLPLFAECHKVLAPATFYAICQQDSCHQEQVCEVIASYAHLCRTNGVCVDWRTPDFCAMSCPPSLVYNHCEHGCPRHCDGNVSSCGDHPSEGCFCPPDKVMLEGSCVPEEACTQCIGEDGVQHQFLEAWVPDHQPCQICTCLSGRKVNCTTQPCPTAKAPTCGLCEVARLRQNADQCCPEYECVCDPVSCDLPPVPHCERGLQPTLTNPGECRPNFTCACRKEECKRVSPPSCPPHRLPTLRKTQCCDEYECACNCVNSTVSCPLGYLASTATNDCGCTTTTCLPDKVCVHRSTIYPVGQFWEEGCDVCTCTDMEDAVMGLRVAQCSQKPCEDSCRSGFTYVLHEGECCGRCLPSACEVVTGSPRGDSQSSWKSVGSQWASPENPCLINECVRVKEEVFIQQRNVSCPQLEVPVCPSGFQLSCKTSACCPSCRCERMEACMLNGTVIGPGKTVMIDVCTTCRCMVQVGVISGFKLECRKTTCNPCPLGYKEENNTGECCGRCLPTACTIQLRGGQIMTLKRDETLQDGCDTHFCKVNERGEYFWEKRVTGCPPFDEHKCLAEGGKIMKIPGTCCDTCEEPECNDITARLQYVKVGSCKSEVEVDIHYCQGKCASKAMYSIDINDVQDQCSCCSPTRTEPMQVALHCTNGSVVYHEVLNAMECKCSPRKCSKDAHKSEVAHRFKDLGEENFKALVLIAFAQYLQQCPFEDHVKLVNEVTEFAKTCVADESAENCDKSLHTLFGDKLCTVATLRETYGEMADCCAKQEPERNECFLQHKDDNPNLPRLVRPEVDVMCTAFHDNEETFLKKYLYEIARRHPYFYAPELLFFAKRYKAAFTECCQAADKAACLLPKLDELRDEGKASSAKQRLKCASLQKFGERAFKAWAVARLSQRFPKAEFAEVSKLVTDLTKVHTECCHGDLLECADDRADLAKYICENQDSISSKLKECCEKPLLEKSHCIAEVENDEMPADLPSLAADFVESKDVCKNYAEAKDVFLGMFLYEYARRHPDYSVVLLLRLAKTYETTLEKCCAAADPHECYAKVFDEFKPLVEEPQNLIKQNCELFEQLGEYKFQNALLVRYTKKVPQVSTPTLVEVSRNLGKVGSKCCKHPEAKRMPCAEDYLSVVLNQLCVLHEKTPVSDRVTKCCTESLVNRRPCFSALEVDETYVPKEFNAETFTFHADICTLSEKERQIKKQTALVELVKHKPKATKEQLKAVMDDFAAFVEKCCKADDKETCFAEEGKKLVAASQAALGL
Assay: covalent-FVIII ELISA over FVIII antigen ELISA

ratio covalent FVIII/Total FVIII antigen | Binder
0.85 | B1
5.43 | B2
1 | B3
3.15 | B4
2.05 | B5

Target: T2, VWF-FP E1015C mutant (albumin-fused von Willebrand Factor) (human)
T2 construct: Stably expressed in CHO cells with furin co-transfected; also called VWF-FP mutant E1015C; Cys residue at VWF aa position 1015; not shown: linker between VWF and albumin, made in analogy to WO 2009/156137
T2 sequence (chain, as listed by the source E1015C E1015C): as the sequence (chain, as listed by the source N1134C N1134C) above, with E252C, C371N counted along it
Assay: covalent-FVIII ELISA over FVIII antigen ELISA

ratio covalent FVIII/Total FVIII antigen | Binder
0.64 | B2

Target: T3, VWF-FP K1116C mutant (albumin-fused von Willebrand Factor) (human)
T3 construct: Stably expressed in CHO cells with furin co-transfected; also called VWF-FP mutant K1116C; Cys residue at VWF aa position 1116; not shown: linker between VWF and albumin, made in analogy to WO 2009/156137
T3 sequence (chain, as listed by the source K1116C K1116C): as the sequence (chain, as listed by the source N1134C N1134C) above, with K353C, C371N counted along it
Assay: covalent-FVIII ELISA over FVIII antigen ELISA

ratio covalent FVIII/Total FVIII antigen | Binder
0.79 | B6
2.23 | B7
5.24 | B2
1.53 | B4
1.23 | B8
0.85 | B9
1.76 | B10

Target: T4, VWF-FP P1079C mutant (albumin-fused von Willebrand Factor) (human)
T4 construct: also called VWF-FP mutant P1079C; Cys residue at VWF aa position 1079; not shown: linker between VWF and albumin, made in analogy to WO 2009/156137
T4 sequence (chain, as listed by the source P1079C P1079C): as the sequence (chain, as listed by the source N1134C N1134C) above, with P316C, C371N counted along it
Assay: covalent-FVIII ELISA over FVIII antigen ELISA

ratio covalent FVIII/Total FVIII antigen | Binder
0.97 | B1
1.14 | B9

Target: T5, VWF-FP R768C mutant (albumin-fused von Willebrand Factor) (human)
T5 construct: Stably expressed in CHO cells with furin co-transfected; also called VWF-FP mutant R768C; Cys residue at VWF aa position 768; not shown: linker between VWF and albumin, made in analogy to WO 2009/156137
T5 sequence (chain, as listed by the source R768C R768C): as the sequence (chain, as listed by the source N1134C N1134C) above, with R5C, C371N counted along it
Assay: covalent-FVIII ELISA over FVIII antigen ELISA

ratio covalent FVIII/Total FVIII antigen | Binder
1.55 | B7
0.51 | B2
0.69 | B4
0.49 | B5
2.23 | B8
3.07 | B10

Target: T1, VWF-FP N1134C mutant (albumin-fused von …)
Assay: covalent-FVIII ELISA over FVIII activity assay

ratio covalent FVIII/Total FVIII activity | Binder
1.14 | B1
0.76 | B2
0.44 | B3
0.88 | B4
1.05 | B5

Target: T2, VWF-FP E1015C mutant (albumin-fused von …)
Assay: covalent-FVIII ELISA over FVIII activity assay

ratio covalent FVIII/Total FVIII activity | Binder
1.21 | B2

Target: T3, VWF-FP K1116C mutant (albumin-fused von …)
Assay: covalent-FVIII ELISA over FVIII activity assay

ratio covalent FVIII/Total FVIII activity | Binder
1.66 | B6
0.6 | B7
0.86 | B2
0.38 | B4
0.34 | B8
1.12 | B9
0.42 | B10

Target: T4, VWF-FP P1079C mutant (albumin-fused von …)
Assay: covalent-FVIII ELISA over FVIII activity assay

ratio covalent FVIII/Total FVIII activity | Binder
1.59 | B1
1.26 | B9

Target: T5, VWF-FP R768C mutant (albumin-fused von …)
Assay: covalent-FVIII ELISA over FVIII activity assay

ratio covalent FVIII/Total FVIII activity | Binder
1.5 | B7
1.03 | B2
1.05 | B4
1.44 | B5
2.11 | B8
4.07 | B10

Target: T1, VWF-FP N1134C mutant (albumin-fused von …)
Assay: ELISA of co-expression supernatant: anti-VWF capture, 350 mM CaCl2 wash, anti-FVIII detection
Description: (§1) Cell culture supernatant samples (10 ml) from transient transfections were concentrated with Amicon Ultracell-30K (Millipore UFC903024; 3000 g centrifugation). FVIII covalently attached to VWF-FP in culture supernatant (concentrates) was determined by a standard ELISA. Briefly, microplates were incubated with 100 μL per well of the capture antibody (rabbit anti human VWF-IgG, Dako A0082 [Dako, Hamburg, Germany], diluted 1:2000 in buffer A [Sigma C3041, Sigma-Aldrich, Munich, Germany]) overnight at ambient temperature. After washing plates three times with buffer B (Sigma T9039), each well was incubated with 200 μL buffer C (Sigma T6789) for 1.5 hours at ambient temperature (blocking). After another three wash steps with buffer B, serial dilutions of the test sample in buffer B as well as serial dilutions of a control preparation of covalently linked FVIII-VWF-FP, (2.0-0.03 arbitrary U/ml in buffer B (we call these “arbitrary units” as they may not correspond to the standard FVIII units as determined using Standard Human Plasma); volumes per well: 100 μL) were incubated for 1.5 hours at ambient temperature. After three wash steps with buffer B, 200 μL of 350 mM CaCl₂ were added to each well and incubated for 1 hour at ambient temperature. CaCl₂ was removed (without washing) and additional 200 μl were added to each well and incubated further for 1 hour. After three wash steps with buffer B 100 μL of a 1:2 dilution in buffer B of the detection antibody (Detecting Antibody for FVIII:C, peroxidase labelled, Cedarlane CL20035K-D) were added to each well and incubated for 1 hour at ambient temperature. After three wash steps with buffer B, 100 μL of substrate solution (OUVF, Siemens Healthcare Diagnostics) were added per well and incubated for 15 minutes at ambient temperature in the dark. Addition of 100 μL undiluted stop dilution (OSFA, Siemens Healthcare Diagnostics) prepared the samples for reading in a suitable microplate reader at 450 nm wavelength. Concentrations of the test samples were then calculated using the standard curve with the control preparation.

covalent FVIII [amU/ml] | Binder
424 | B1
693 | B2
435 | B3
741 | B4
843 | B5

Target: T2, VWF-FP E1015C mutant (albumin-fused von …)
Assay: as above
Description: as §1

covalent FVIII [amU/ml] | Binder
1640 | B2

Target: T3, VWF-FP K1116C mutant (albumin-fused von …)
Assay: as above
Description: as §1

covalent FVIII [amU/ml] | Binder
1080 | B6
1440 | B7
2740 | B2
1150 | B4
488 | B8
992 | B9
1350 | B10

Target: T4, VWF-FP P1079C mutant (albumin-fused von …)
Assay: as above
Description: as §1

covalent FVIII [amU/ml] | Binder
409 | B1
398 | B9

Target: T5, VWF-FP R768C mutant (albumin-fused von …)
Assay: as above
Description: as §1

covalent FVIII [amU/ml] | Binder
87 | B7
506 | B2
491 | B4
390 | B5
328 | B8
2210 | B10
